Here are results for one molecule from paper PMC5245964 (eLife, 2017).

This assay addresses T1, Mis18α:Mis18β complex (insect-cell-expressed) (human, UniProt Q9NYP9 1-233; O43482 1-229).
T1 construct: Mis18α, human, the CDS of Mis18α; codon-optimized cDNA (GeneArt); Mis18β, human, the CDS of Mis18β; pre-formed complex used as one partner in pull-downs and reconstitution; also called Mis18α:Mis18β hexamer; source: Tnao38 insect cells, baculovirus co-expression, purified (Ni resin, His-TEVp cleavage, SEC); not shown: His6, N-terminal, cleaved; copies: 4 + 2
As to the kind of experiment: pull-down; MBP-tagged M18BP1 variant held on amylose resin, Mis18α:Mis18β in solution; proteins 3 μM, buffer HST300 (30 mM HEPES pH 7.5, 300 mM NaCl, 1 mM TCEP), 4°C, 30 min; CBB-stained Tricine–SDS-PAGE. The following applies: both partners purified.

T1 sequence (Q9NYP9 whole entry, chain 1 of 2): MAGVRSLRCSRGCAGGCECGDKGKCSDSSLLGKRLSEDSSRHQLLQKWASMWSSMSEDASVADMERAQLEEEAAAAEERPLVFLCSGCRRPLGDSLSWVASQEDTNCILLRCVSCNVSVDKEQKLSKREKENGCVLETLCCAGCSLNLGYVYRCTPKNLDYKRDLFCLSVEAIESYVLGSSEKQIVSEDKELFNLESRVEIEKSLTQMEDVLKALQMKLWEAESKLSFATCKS
T1 sequence (O43482 whole entry, chain 2 of 2): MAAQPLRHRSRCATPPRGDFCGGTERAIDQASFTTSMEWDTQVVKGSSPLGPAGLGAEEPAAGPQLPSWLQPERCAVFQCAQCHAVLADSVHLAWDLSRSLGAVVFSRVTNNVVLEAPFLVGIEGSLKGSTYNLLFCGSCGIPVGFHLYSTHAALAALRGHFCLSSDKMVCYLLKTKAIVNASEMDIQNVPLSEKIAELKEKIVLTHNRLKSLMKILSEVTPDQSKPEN

B1: MBP-M18BP1^61–140/S110A-8His (domain or fragment, human, UniProt Q6P0N0 61-140, looked up)
chain: NQFLKMTTFNNKNIFQSTMLTEATTSNSSLDISAIKPNKDGLKNKANYEAPGKIFLRMKEKVLRDKQEQPSRNSSLLEPQ
notes: M18BP1 (KNL2), human, residues 61-140; also tested after CDK1:Cyclin B1 treatment; Ser110 is the only major site of 61-140, so no separate molecule was made; source: E. coli BL21-CodonPlus(DE3)-RIL, purified (Ni resin); not shown: MBP, N-terminal, kept; His8, C-terminal, kept
As to B1, the binding result was “binds”.
